Results taken from the supplement of paper PMC10126150.
± gives the standard deviation of the averaged measurements.

System: ATP
Assay: switch fluorescence ratio, 500 uM ATP over buffer (Cy3 cluster intensity, sum of 5 cycles each) (fold (ratio)); higher = stronger signal-on switching upon ATP binding; sequences stand for … in TCGTCGGCAGCGTCAGATGTGTATAAGAGACAGTTTTTTTTTTTTTTTTTTTTTTTTT…TC
Details: aptamer strand: ATP DNA aptamer (quencher-CACCTGGGGGAGTATTGCGGAGGAAGG + anchor), 100 nM annealed; ATP concentration: 500 uM
How it was run: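 The fluorescence ratio divides summed target-cycle Cy3 intensity by summed buffer-cycle Cy3 intensity for each cluster and is averaged per switch-domain sequence. Cy3-labelled switching-strand clusters on a modified Illumina MiSeq flow-cell were annealed to 100 nM quencher-labelled ATP aptamer, then imaged in selection buffer and again after 15 min with 500 uM ATP at 22 °C. Five such cycles were run, with NaOH stripping and re-annealing between them, and clusters outside 100-1000 RFU were excluded.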
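Also: ATP exposure 15 min at 22 °C before imaging.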

Row | Sequence | switch fluorescence ratio
1 | TTTTAGTTAT | 1.04 ± 0.037
2 | GGGAATGTTC | 1.01 ± 0.014
3 | ACGGGAATTG | 1.04 ± 0.019
4 | CGGTTCTCTC | 1.02 ± 0.013
5 | ACATTCTGGA | 0.988 ± 0.031
6 | TGACAGTTGG | 1.017 ± 0.0055
7 | ACGTATCGGC | 1.056 ± 0.0075
8 | AAGAGATGTG | 0.985 ± 0.024
9 | TAAGGTACAT | 1.09 ± 0.012
10 | TAGTTTGGCA | 0.985 ± 0.037
11 | ATCGTATTGT | 0.993 ± 0.03
12 | TCTGTCCTTT | 0.9708 ± 0.0028
13 | CCGCCAGGGG | 3.42 ± 1.8
14 | TTTTAAAATG | 1.01 ± 0.032
15 | GCGTGGGGGA | 1 ± 0.039
16 | TAACCGAGAT | 1.01 ± 0.043
17 | GCAATTTTAG | 1.03 ± 0.035
18 | CGGCGTACTA | 1.06 ± 0.014
19 | ATCCTTGTTG | 0.965 ± 0.027
20 | CCTAACTAAA | 0.995 ± 0.028
21 | GGTTGTGCGA | 0.98322 ± 0.00037
22 | AAGTATGTTC | 1.004 ± 0.0014
23 | CAGCGGCTGT | 0.966 ± 0.026
24 | CTTGATATTG | 0.999 ± 0.018
25 | AGGGTATCGC | 0.9932 ± 0.0065

Row | Sequence | switch fluorescence ratio
26 | TATCGAGTTT | 1 ± 0.038
27 | ATTGCGTTGG | 0.996 ± 0.013
28 | GGGGCGAGGT | 0.9974 ± 0.0041
29 | CGATCGGATT | 1.01 ± 0.017
30 | TAGGAGTTAG | 1 ± 0.047
31 | AAACAGTTAT | 1.03 ± 0.042
32 | TCAAAGGGCC | 1.004 ± 0.0073
33 | TAAGTTCTAA | 0.979 ± 0.018
34 | TCATGGTGTC | 1.01 ± 0.018
35 | AGACTGCTGG | 0.977 ± 0.018
36 | TCGGCATTTT | 1.027 ± 0.0014
37 | TTGGCGTATC | 0.946 ± 0.041
38 | TTTTGATGGC | 1.01 ± 0.022
39 | TACGGGGGAA | 1.26 ± 0.31
40 | AGTTTAAAAC | 1.02 ± 0.0077
41 | TAATGGGTTA | 1 ± 0.037
42 | ATGAGGAGGA | 1.04 ± 0.013
43 | CAACCCATCT | 0.992 ± 0.042
44 | AGGGGCTGTG | 0.9991 ± 0.0074
45 | CAGAGATGTT | 1.01 ± 0.032
46 | ATTGTGCGGG | 1.01 ± 0.036
47 | GTATGAGGGA | 0.993 ± 0.018
48 | GGATTTATTT | 1.06 ± 0.026
49 | CGAGTCCCAC | 1 ± 0.12
50 | TTAGTTGGAT | 1.04 ± 0.029

Row | Sequence | switch fluorescence ratio
51 | CAGAATTGTG | 1.02 ± 0.012
52 | CGGCTTGCGG | 1.03 ± 0.015
53 | TATTTTGTAG | 0.995 ± 0.019
54 | CTGATTTGTA | 1 ± 0.053
55 | CTGCAGGGGA | 1.05 ± 0.048
56 | ATGCGTGAGG | 1.011 ± 0.0037
57 | GGGGTACGTT | 1 ± 0.032
58 | CTCAATTATG | 0.972 ± 0.043
59 | TTTATATGTC | 1.12 ± 0.23
60 | ACAGACTGAA | 1.16 ± 0.019
61 | CAAATGATGT | 1.01 ± 0.027
62 | AGTGGCACCG | 1.01 ± 0.015
63 | TCCGTTATTT | 1.021 ± 0.0092
64 | GGTAATAGAG | 0.987 ± 0.05
65 | AGTTTGATGT | 1 ± 0.023
66 | GTGTAAGGTA | 1.02 ± 0.018
67 | TATAGGGGTG | 1.03 ± 0.039
68 | CATACAAGGG | 1.019 ± 0.0029
69 | CCGCGGCGAA | 1.47 ± 0.22
70 | AAGGTTCCTG | 0.98 ± 0.03
71 | TATATCTTCA | 1.017 ± 0.0055
72 | GGGGTAAGGG | 1 ± 0.028
73 | GCAAGGAGGG | 1.05 ± 0.14
74 | ATCTAGTACG | 1.02 ± 0.044
75 | TTTGGGCTGC | 1.28 ± 0.41

Row | Sequence | switch fluorescence ratio
76 | GTTAGAGGTT | 0.999 ± 0.03
77 | CGCATTCTAA | 1.31 ± 0.019
78 | ATGTTGTAAG | 1.01 ± 0.039
79 | CTGATGGCGT | 1 ± 0.0068
80 | TTTCATCTTG | 0.9706 ± 0.0034
81 | ATGGGGCAGG | 1.01 ± 0.033
82 | CATGTTATCC | 1.01 ± 0.034
83 | GTAAGTAGGA | 1 ± 0.037
84 | ACTGGTGTTC | 1.019 ± 0.0094
85 | AGAGATGTTG | 0.993 ± 0.045
86 | TAAAGTGGT | 0.986 ± 0.043
87 | ATGCATGCGT | 1 ± 0.048
88 | GAGGGCAGCA | 1.01 ± 0.048
89 | TTTCAGGTTG | 0.982 ± 0.041
90 | CCAGGGAGCC | 1.1 ± 0.17
91 | TGGGGAAGGA | 0.99 ± 0.018
92 | AAACTACTCT | 1.03 ± 0.02
93 | ATTGAATTTG | 0.9999 ± 0.0013
94 | AGATGATGGG | 0.99 ± 0.017
95 | TTTTTTTCGG | 1 ± 0.027
96 | TTTTGGGGCA | 1.07 ± 0.13
97 | CTTACAAGC | 1.04 ± 0.026
98 | GATTCGGGCG | 1 ± 0.069
99 | GGTGTTGTTG | 1.017 ± 0.0023
100 | ATAATAATGT | 1.002 ± 0.0045
